Laboratory results taken from patent publication US20090233993A1, “COMPOSITIONS AND METHODS FOR INHIBITING GSK3 ACTIVITY AND USES THEREOF” (Burnham Institute for Medical Research, priority 2008, published 2009).
Several values for one entry are separate records, joined by “and”; a condition that tells them apart may be missing. Equal values may be shown once. Entries after “also recorded” stand apart in the source; their conditions may differ.

Key:
Aβ generation = Aβ generation / APP processing in HeLaSwe cells expressing FG01 (Western blot, ELISA); assay type: cell-based, human
Method: Expression of secreted Aβ, sAPPα, β-CTF, total APP, α-tubulin and FG01 were detected by Western blots.
HeLa/swe cells were transfected with GSK-3β and/or FG01 as indicated. The levels of Aβ40/42 were determined by modified ELISA. The expression of GSK-3β and β-catenin were shown by Western blots. n=4.
HeLaSwe cells were transfected with FG01 or controls. Conditioned media and lysates from these cells were collected. The levels of Aβ40 and Aβ42 were quantified using ELISA kits (Invitrogen), following the manufacturer's protocols.
To corroborate this, FG01 was over expressed in N2aSwe cells.

GSK-3β = GSK-3β in vitro kinase activity after immunoprecipitation from N2aSwe cells; assay type: cell-based, mouse; settings: in vitro kinase assay, FG01-overexpressing N2aSwe cells vs control
Description: The levels of the recombinant Notch (NotchΔE with Myc-tag) and the γ-secretase cleaved Notch fragment (NICD) were quantified by Western blotting using myc antibody and an antibody specific to processed Notch followed by densitometry. […] The results represent at least four independent experiments.
Commercial kits were used to assay in vitro activities of GSK-3β (Sigma) and PKA (Upstate). For GSK-3α activity, a commercial GSK-3β activity assay kit was used but the procedure to immunoprecititate GSK-3β was replaced with immunoprecipitation of GSK-3α using an anti-GSK-3α antibody (Cell Signaling). cAMP levels were assayed using a commercial kit (Biovision).

GSK-3α/β = assay: phospho-GSK-3α/β Western blot in rat PC12 cells; assay type: cell-based; settings: FG01 overexpression
Description: Although the possibility that FG01 may modulate substrate specificity or accessibility to γ-secretase can not be excluded, it is equally possible that FG01 regulates other proteins/pathways functioning in APP processing and Aβ generation. […] Thus, the activities of GSK-3α/β were studied in the presence or absence of FG01 overexpression by examining levels of phospho-GSK-3α (Ser 21) and phospho-GSK-3β (Ser 9) (which represent inactivated forms of GSK-3) and by in vitro kinase assays.

adenylate cyclases = assay: co-immunoprecipitation of FG01 with adenylate cyclases; assay type: binding, mouse; settings: N2a cells overexpressing FG01
Method: After 48-72 hrs, cells were lysed and cell lysates were subjected to immunoprecipitation with mouse IgG, rabbit IgG, myc antibody and adenylyl cyclase (AC) antibody (Santa Cruz Biotechnology, catalog number sc-1701), and then immunoblotted with antibodies against adenylyl cyclase (AC) and myc, respectively.
Cells transfected with FG01 were lysed in either CHAPSO buffer (1% CHAPSO, 25 mM HEPES, pH7.4, 150 mM NaCl, and 2 mM EDTA supplemented with protease inhibitors) or in NP40 buffer (1% NP40 in phosphate buffered saline, supplemented with protease inhibitors). Lysates were immunoprecipitated using mouse IgG, rabbit IgG, and antibodies against Myc or adenylate cyclases and Trueblot™ IP beads (eBioscience), followed by Western blot with antibodies against Myc or adenylate cyclases.

PKC = PKC activity in N2a cell lysates (32P peptide substrate); assay type: cell-based, mouse; settings: FG01 overexpression in N2a cells
Method: N2a cells were transfected with pcDNA or FG01. After lysis, cell lysates containing […] of total proteins were incubated with synthesized PKC specific peptide substrate and ^32P-ATP. The ^32P labeled peptides were captured and the radioactivities were quantified by scintillation. The activities of PKC were represented by the normalized radioactivities of the labeled peptide substrates. n=4.

PKA = PKA inhibitor H89 treatment of FG01-transfected N2aSwe cells; assay type: cell-based, mouse; settings: FG01-transfected cells treated with H89
Method: After 48 hr incubation, cell media were changed to Opti-MEM (Invitrogen) containing DMSO or a PKA activity inhibitor H89 (2 μM) and cells were incubated for additional 4 hrs. The cell media were used for Aβ immunoprecipitation-Western blotting and cell lysates were subjected to Western blotting for p-CREB (substrate for PKA) and p-GSK3β. As shown, inhibiting PKA activity with H89 prevented serine phosphorylation of CREB and GSK3β by FG01.
N2aSwe cells were transfected with control vector or FG01 and then equally split. Four hours before collection, cells were treated with the GSK-3 inhibitor lithium chloride (5 mM) or sodium chloride (5 mM, as control). Alternatively, cells were treated with a PKA inhibitor H89 at 10 μM or with DMSO for control.

3×Tg AD mice = assay: FG01 transgenic mice crossed with triple transgenic (3×Tg) AD mice, brain analysis; assay type: in vivo, mouse
Description: Brain-specific FG01 transgenic mice were generated using a FG01 expression cassette. FG01 has an N-terminal Myc tag and is driven by the human Thy-1 promoter for neuron-specific expression. A SV40 polyA fragment is linked at the 3′ end for enhancing expression. Genotyping P5 primer was complementary to hThy1 sequence. Genotyping P3 primer was complementary to SV40/Poly A sequence. Reverse transcription primer RT-P5 was complementary to sequence on the 5′ side of the FG01 sequence. Hemizygous FG01 transgenic mice were crossed with homozygous triple transgenic (3×Tg) AD mice harboring mutations in human APP and tau genes on a presenilin 1 (PS1) mutant background (Oddo et al., 2003). Procedures involving animals and their care conformed to institutional guidelines (Animal Resources Department at Burnham Institute for Medical Research).
FG01/3×Tg mice and littermate controls on a 3×Tg background were sacrificed at 11 months of age. Half of the brain was used for immunoblot analysis and the other half was paraffin-embedded for immunohistochemistry. Sagittal brain sections (4 μm) were deparaffinized, hydrated, and then immunostained with anti-Aβ antibody (6E10), anti-phosphorylated tau antibody (PHF-1), or anti-synapsin antibody. After additional incubation with biotinylated secondary antibody, samples were incubated in ABC Elite (HRP) reagent (Vector Laboratories). Reactions were visualized by developing in DAB substrates (Vector Laboratories). All samples were visualized under a light microscope.
FG01 transgenic mice were crossed with triple transgenic (3×Tg) AD mice harboring mutations in human APP, tau and presenilin 1 (PS1) genes (Oddo et al., 2003).

[1] = ELISA, HeLaSwe cells, FG01 expression
[2] = FG01/3×Tg vs 3×Tg littermates, 11 months

B1: FG01: 141 amino acid transmembrane protein encoded by mouse retrogene fg01 (SEQ ID NO:2); expressed from transfected vector or transgene (protein)
chain: MQSQQRNIGYFNHLKADSRNITYSMTFSTKSSNQNFIIFLNEVQAAIIGHERCDLLPVLNELHPDALPDGRIWLFGLNPYFFQHNSLCMRGTPKRIGLQGCAQVGFLVLFVMPLLIPSVTAELPGSSETTTLAHLAGATGP
modifications: Myc and His6 tags; homo sapien
notes: expressed from transfected vector or transgene
Aβ40 level (Aβ generation; [1]): significantly reduced
Aβ42 level (Aβ generation; [1]): significantly reduced
effects of overexpression of GSK-3β on Aβ production (Aβ generation; HeLa/swe cells transfected with GSK-3β and/or FG01, Aβ40/42 ELISA): suppressed
Aβ levels / Aβ generation (Aβ generation; mouse FG01 expressed in HeLa cells with APP Swedish mutant): decreases; also recorded: reduced Aβ generation
accumulation of sAPPα (Aβ generation; mouse FG01 in HeLaSwe cells): increased accumulation
accumulation of βCTF (Aβ generation; mouse FG01 in HeLaSwe cells): increased accumulation
decrease in GSK-3β activity (GSK-3β): ~30% and 40%
phospho-GSK-3α (Ser21) and phospho-GSK-3β (Ser9) levels (GSK-3α/β): more highly phosphorylated
interaction with adenylate cyclases (adenylate cyclases): interacts
PKC activity (PKC): increased
inhibition of Aβ generation when PKA suppressed by H89 (PKA): failed to inhibit
inhibition of GSK-3 activity when PKA suppressed by H89 (PKA): failed to inhibit
levels of the synaptic marker PSD-95 (3×Tg AD mice; 3×Tg mouse brains with FG01 overexpression): markedly increased
Aβ generation in brain (3×Tg AD mice; [2]): reduced
GSK-3 activity in brain (3×Tg AD mice; [2]): reduced
PKA activity in brain (3×Tg AD mice; [2]): dramatically increased
tau phosphorylation in brain (3×Tg AD mice; [2]): reduced
number of Aβ-immunostaining-positive neurons (3×Tg AD mice; hippocampus and cortex, immunohistochemistry 6E10): significantly decreased
number of phosphorylated tau-immunostaining-positive neurons (3×Tg AD mice; hippocampus and cortex, immunohistochemistry PHF-1): significantly decreased
synapsin immunostaining (3×Tg AD mice; hippocampus, vs 3×Tg mice without FG01): much higher immunoreactivity
